Reference: publication PMC8641930, “PLK1 regulates the PrimPol damage tolerance pathway during the cell cycle” (Science Advances, 2021)

molecular target: T1, RPA70N (RPA70 1-120) (UniProt P27694 1-120); test: SEC; analytical size exclusion chromatography, Superdex 75 10/300 GL; 50 mM tris-HCl, 100 mM NaCl, 2 mM TCEP; CTD variants mixed with RPA70N at 35 uM; interaction read as a shift of the peaks relative to the single proteins; details: both partners purified
T1 construct: Replication Protein A 70 kDa subunit (RPA70), N-terminal domain, residues 1-120; source: E. coli BL21, purified (Ni-NTA, thrombin cleavage of the tag, Superdex 75 SEC)
T1 sequence (P27694 1-120): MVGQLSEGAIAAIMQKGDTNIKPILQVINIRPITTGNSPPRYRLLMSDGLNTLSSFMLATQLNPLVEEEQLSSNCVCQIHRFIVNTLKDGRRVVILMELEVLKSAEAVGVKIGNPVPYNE

| binding result | Binder |
| --- | --- |
| binds | PrimPol CTD (PrimPol 480-560) (domain or fragment, human, UniProt Q96LW4 480-560, looked up, also called C-terminal region of WT PrimPol; PrimPol C-terminal domain; source: E. coli BL21, purified (Ni-NTA, Q-Sepharose, Superdex 75 SEC)) TTDEADETRSNETQNPHKPSPSRLSTGASADAVWDNGIDDAYFLEATEDAELAEAAENSLLSYNSEVDEIPDELIIEVLQE |
| binds | PrimPol CTD (PrimPol 480-560) S538E (domain or fragment, human, UniProt Q96LW4 480-560, looked up, Primase-Polymerase (PrimPol), human, C-terminal domain, residues 480-560, phosphomimetic mutant S538E; also called C-terminal region of mutant PrimPol; CTD S538E; source: E. coli BL21, purified (Ni-NTA, Q-Sepharose, Superdex 75 SEC)) TTDEADETRSNETQNPHKPSPSRLSTGASADAVWDNGIDDAYFLEATEDAELAEAAENELLSYNSEVDEIPDELIIEVLQE |
| binds | PrimPol CTD (PrimPol 480-560) S538A (domain or fragment, human, UniProt Q96LW4 480-560, looked up, Primase-Polymerase (PrimPol), human, C-terminal domain, residues 480-560, phospho-null mutant S538A; also called C-terminal region of mutant PrimPol; CTD S538A; source: E. coli BL21, purified (Ni-NTA, Q-Sepharose, Superdex 75 SEC)) TTDEADETRSNETQNPHKPSPSRLSTGASADAVWDNGIDDAYFLEATEDAELAEAAENALLSYNSEVDEIPDELIIEVLQE |
